From the RNAGym collection of RNA variant scans (doi:10.7554/elife.90254)

B1: LINE1-mini (parent)
chain: GGCAGAGCUCAACACAGCGUGGCAAAGUGGCUGUGGCUAGACUGCC

Variants of: B1
Test: self-cleavage, relative activity (ratio to wild type); higher = more cleavage; in vitro, sequencing; the parent is a self-cleaving ribozyme

Variant	self-cleavage
UGCAGAGCUCAACACAGCGCGGCAAAGUGGCUGUGGCUAGACUGCC	0.22
UGCAGAGCUCAACACAGCGAGGCAAAGUGGCUGUGGCUAGACUGCC	0.31
UGCAGAGCUCAACACAGCGGGGCAAAGUGGCUGUGGCUAGACUGCC	0.16
UGCAGAGCUCAACACAGCGUGGCAAAGUGGCUGUGGCAAGACUGCC	0.13
UGCAGAGCUCAACACAGCGUGGCAAAGUGGCUGUGGCCAGACUGCC	0.2
UGCAGAGCUCAACACAGCGUGGCAAAGUGGCUGUGGCGAGACUGCC	0.03
GACCGAGCUCAACACAGCGUGGCAAAGUGGCUGUGGCUAGACUGCC	0.67
GACUGAGCUCAACACAGCGUGGCAAAGUGGCUGUGGCUAGACUGCC	0.58
GACGGAGCUCAACACAGCGUGGCAAAGUGGCUGUGGCUAGACUGCC	0.42
UCCAGAGCUCAACACAGCGUGGCAAAGUGGCUGUGGCUAGACUGCC	0.16
UACAGAGCUCAACACAGCGUGGCAAAGUGGCUGUGGCUAGACUGCC	0.38
UUCAGAGCUCAACACAGCGUGGCAAAGUGGCUGUGGCUAGACUGCC	0.13
UGCAGACCUCAACACAGCGUGGCAAAGUGGCUGUGGCUAGACUGCC	0.12
UGCAGAACUCAACACAGCGUGGCAAAGUGGCUGUGGCUAGACUGCC	0.11
UGCAGAUCUCAACACAGCGUGGCAAAGUGGCUGUGGCUAGACUGCC	0.06
UGCAGAGCUCAACACAGCCUGGCAAAGUGGCUGUGGCUAGACUGCC	0.2
UGCAGAGCUCAACACAGCAUGGCAAAGUGGCUGUGGCUAGACUGCC	0.57
UGCAGAGCUCAACACAGCUUGGCAAAGUGGCUGUGGCUAGACUGCC	0.11
GACAGGGCUCAACACAGCGUGGCAAAGUGGCUGUGGCUAGACUGCC	0.13

Variant	self-cleavage
GACAGCGCUCAACACAGCGUGGCAAAGUGGCUGUGGCUAGACUGCC	0.33
GACAGUGCUCAACACAGCGUGGCAAAGUGGCUGUGGCUAGACUGCC	1
GACAGAGCUCAACACAGCGUGGCAACGUGGCUGUGGCUAGACUGCC	0.9
GACAGAGCUCAACACAGCGUGGCAAGGUGGCUGUGGCUAGACUGCC	0.6
GACAGAGCUCAACACAGCGUGGCAAUGUGGCUGUGGCUAGACUGCC	1.83
UGCAGAGCUCAACACAGCGUGGCAAAGUGCCUGUGGCUAGACUGCC	0.27
UGCAGAGCUCAACACAGCGUGGCAAAGUGACUGUGGCUAGACUGCC	0.43
UGCAGAGCUCAACACAGCGUGGCAAAGUGUCUGUGGCUAGACUGCC	0.59
GAGAGAGCUCAACACAGCGUGGCAAAGUGGCUGUGGCUAGACUGCC	0.76
GAAAGAGCUCAACACAGCGUGGCAAAGUGGCUGUGGCUAGACUGCC	1.93
GAUAGAGCUCAACACAGCGUGGCAAAGUGGCUGUGGCUAGACUGCC	0.9
GACAGAGCUCAACACAGCGUGGCACAGUGGCUGUGGCUAGACUGCC	0.62
GACAGAGCUCAACACAGCGUGGCAUAGUGGCUGUGGCUAGACUGCC	0.65
GACAGAGCUCAACACAGCGUGGCAGAGUGGCUGUGGCUAGACUGCC	0.23
UGCAGAGCUCAACACAGCGUGGCAAAGUGGCUGUGGCUAGACUGUC	0.38
GACAGAGCUCAACACAGCGUGGCAAAGUGGCUGUGGCUUGACUGCC	0.76
GACAGAGCUCAACACAGCGUGGCAAAGUGGCUGUGGCUGGACUGCC	0.22
GACAGAGCUCAACACAGCGUGGCAAAGUGGCUGUGGCUCGACUGCC	0.54
UGCAGAGCUCAACACAGCGUGGCAAAGUGGCUGUGUCUAGACUGCC	0.11

Variant	self-cleavage
UGCAGAGCUCAACACAGCGUGGCAAAGUGGCUGUGACUAGACUGCC	0.11
UGCAGAGCUCAACACAGCGUGGCAAAGUGGCUGUGCCUAGACUGCC	0.04
UGCAUAGCUCAACACAGCGUGGCAAAGUGGCUGUGGCUAGACUGCC	0.09
UGCAAAGCUCAACACAGCGUGGCAAAGUGGCUGUGGCUAGACUGCC	0.2
UGCACAGCUCAACACAGCGUGGCAAAGUGGCUGUGGCUAGACUGCC	0.04
GACAGAGCUCAUCACAGCGUGGCAAAGUGGCUGUGGCUAGACUGCC	0.41
GACAGAGCUCAGCACAGCGUGGCAAAGUGGCUGUGGCUAGACUGCC	0.14
GACAGAGCUCACCACAGCGUGGCAAAGUGGCUGUGGCUAGACUGCC	0.06
GACAGAGCUCAACACAGCGUGGCAAAGUGGCUGUGGCUAGUCUGCC	0.66
GACAGAGCUCAACACAGCGUGGCAAAGUGGCUGUGGCUAGCCUGCC	0.08
GACAGAGCUCAACACAGCGUGGCAAAGUGGCUGUGGCUAGGCUGCC	0.4
UGCAGAGCUCAACACAGCGUGGCAAAGUGGCUGUGGCUAAACUGCC	0.04
UGCAGAGCUCAACACAGCGUGGCAAAGUGGCUGUGGCUAUACUGCC	0.08
UGCAGAGCUCAACACAGCGUGGCAAAGUGGCUGUGGCUACACUGCC	0.04
UGCAGAGCUCAACACAGCGUGGCAAAGUGGCUGUGGCUAGACUCCC	0.14
UGCAGAGCUCAACACAGCGUGGCAAAGUGGCUGUGGCUAGACUUCC	0.15
UGCAGAGCUCAACACAGCGUGGCAAAGUGGCUGUGGCUAGACUACC	0.11
GACAGAGCUCGACACAGCGUGGCAAAGUGGCUGUGGCUAGACUGCC	0.08
